{"source": "the supplement of paper PMC9112550", "about": "“Optimization of the antimicrobial peptide Bac7 by deep mutational scanning” (BMC Biology, 2022);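 note: peptides expressed intracellularly from a pBAD plasmid library in pooled LB shake-flask culture, induced with 0.3% L-arabinose, DNA abundance read by NGS, three biological replicates, DESeq2 with apeglm shrinkage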", "data": [{"system": "Escherichia coli TOP10", "test": "shrunken log2 fold change of peptide-encoding DNA abundance (4.5 h post-induction vs induction); higher = less antimicrobial activity (less host growth inhibition)", "details": "time post-induction: 4.5 h; library: site-saturation at positions 5, 18, 19, 20", "values": [{"sequence": "RRIRWRPPRLPRPRPRPIKMPRP", "shrunken log2 fold change": 0.212}, {"sequence": "RRIRMRPPRLPRPRPRPFDKPRP", "shrunken log2 fold change": -0.0136}, {"sequence": "RRIRPRPPRLPRPRPRPVWDPRP", "shrunken log2 fold change": 0.212}, {"sequence": "RRIRSRPPRLPRPRPRPGCAPRP", "shrunken log2 fold change": 0.46}, {"sequence": "RRIRWRPPRLPRPRPRPGEQPRP", "shrunken log2 fold change": 0.0722}, {"sequence": "RRIRCRPPRLPRPRPRPQWCPRP", "shrunken log2 fold change": -0.158}, {"sequence": "RRIRDRPPRLPRPRPRPYMWPRP", "shrunken log2 fold change": 0.0589}, {"sequence": "RRIRGRPPRLPRPRPRPWDSPRP", "shrunken log2 fold change": -0.479}, {"sequence": "RRIRVRPPRLPRPRPRPFHGPRP", "shrunken log2 fold change": 0.162}, {"sequence": "RRIRCRPPRLPRPRPRPISTPRP", "shrunken log2 fold change": -0.245}, {"sequence": "RRIRGRPPRLPRPRPRPCENPRP", "shrunken log2 fold change": 0.136}, {"sequence": "RRIRPRPPRLPRPRPRPFMIPRP", "shrunken log2 fold change": 0.471}, {"sequence": "RRIRCRPPRLPRPRPRPCMCPRP", "shrunken log2 fold change": -0.668}, {"sequence": "RRIRKRPPRLPRPRPRPRQVPRP", "shrunken log2 fold change": 0.029}, {"sequence": "RRIRMRPPRLPRPRPRPWKDPRP", "shrunken log2 fold change": -0.0578}, {"sequence": "RRIRTRPPRLPRPRPRPLGPPRP", "shrunken log2 fold change": 0.114}, {"sequence": "RRIRIRPPRLPRPRPRPFMLPRP", "shrunken log2 fold change": -0.407}, {"sequence": "RRIRDRPPRLPRPRPRPFTDPRP", "shrunken log2 fold change": 0.00624}, {"sequence": "RRIRRRPPRLPRPRPRPMIDPRP", "shrunken log2 fold change": -0.1}, {"sequence": "RRIRFRPPRLPRPRPRPQVSPRP", "shrunken log2 fold change": -0.298}, {"sequence": "RRIRCRPPRLPRPRPRPVYQPRP", "shrunken log2 fold change": -0.783}, {"sequence": "RRIRNRPPRLPRPRPRPWLWPRP", "shrunken log2 fold change": 0.165}, {"sequence": "RRIRQRPPRLPRPRPRPELKPRP", "shrunken log2 fold change": 0.0791}, {"sequence": "RRIRMRPPRLPRPRPRPPPNPRP", "shrunken log2 fold change": 1.77}, {"sequence": "RRIRHRPPRLPRPRPRPCGNPRP", "shrunken log2 fold change": -0.196}, {"sequence": "RRIRVRPPRLPRPRPRPMYCPRP", "shrunken log2 fold change": -0.233}, {"sequence": "RRIRKRPPRLPRPRPRPKAKPRP", "shrunken log2 fold change": 0.0663}, {"sequence": "RRIRDRPPRLPRPRPRPNEVPRP", "shrunken log2 fold change": 0.0348}, {"sequence": "RRIRLRPPRLPRPRPRPNKHPRP", "shrunken log2 fold change": -0.43}, {"sequence": "RRIRCRPPRLPRPRPRPSGHPRP", "shrunken log2 fold change": -0.422}, {"sequence": "RRIRIRPPRLPRPRPRPAPNPRP", "shrunken log2 fold change": 0.0272}, {"sequence": "RRIRRRPPRLPRPRPRPYWSPRP", "shrunken log2 fold change": -0.353}, {"sequence": "RRIRFRPPRLPRPRPRPGNMPRP", "shrunken log2 fold change": -0.198}, {"sequence": "RRIRGRPPRLPRPRPRPGKKPRP", "shrunken log2 fold change": -0.0917}, {"sequence": "RRIRCRPPRLPRPRPRPGISPRP", "shrunken log2 fold change": -0.195}, {"sequence": "RRIRTRPPRLPRPRPRPMRQPRP", "shrunken log2 fold change": -0.01}, {"sequence": "RRIRCRPPRLPRPRPRPSDEPRP", "shrunken log2 fold change": -0.126}, {"sequence": "RRIRDRPPRLPRPRPRPNHGPRP", "shrunken log2 fold change": 1.15}, {"sequence": "RRIRRRPPRLPRPRPRPIAQPRP", "shrunken log2 fold change": 0.129}, {"sequence": "RRIRKRPPRLPRPRPRPGYYPRP", "shrunken log2 fold change": -0.0439}, {"sequence": "RRIRCRPPRLPRPRPRPPWVPRP", "shrunken log2 fold change": 0.204}, {"sequence": "RRIRFRPPRLPRPRPRPQNCPRP", "shrunken log2 fold change": -0.195}, {"sequence": "RRIRCRPPRLPRPRPRPFQTPRP", "shrunken log2 fold change": -0.153}, {"sequence": "RRIRARPPRLPRPRPRPFECPRP", "shrunken log2 fold change": -0.00737}, {"sequence": "RRIRGRPPRLPRPRPRPCMFPRP", "shrunken log2 fold change": 0.797}, {"sequence": "RRIRKRPPRLPRPRPRPSPPPRP", "shrunken log2 fold change": 0.305}, {"sequence": "RRIRCRPPRLPRPRPRPMHAPRP", "shrunken log2 fold change": 0.315}, {"sequence": "RRIRARPPRLPRPRPRPWDTPRP", "shrunken log2 fold change": 0.0787}, {"sequence": "RRIRVRPPRLPRPRPRPSVGPRP", "shrunken log2 fold change": -0.659}, {"sequence": "RRIRPRPPRLPRPRPRPAKYPRP", "shrunken log2 fold change": -0.317}, {"sequence": "RRIRCRPPRLPRPRPRPCHFPRP", "shrunken log2 fold change": -0.273}, {"sequence": "RRIRERPPRLPRPRPRPYKKPRP", "shrunken log2 fold change": 0.0359}, {"sequence": "RRIRFRPPRLPRPRPRPGPCPRP", "shrunken log2 fold change": 0.0242}, {"sequence": "RRIRIRPPRLPRPRPRPCAVPRP", "shrunken log2 fold change": -0.431}, {"sequence": "RRIRVRPPRLPRPRPRPSFCPRP", "shrunken log2 fold change": 0.212}, {"sequence": "RRIRDRPPRLPRPRPRPGPCPRP", "shrunken log2 fold change": 0.244}, {"sequence": "RRIRARPPRLPRPRPRPWEHPRP", "shrunken log2 fold change": -0.0255}, {"sequence": "RRIRIRPPRLPRPRPRPKWDPRP", "shrunken log2 fold change": -0.13}, {"sequence": "RRIRFRPPRLPRPRPRPNPRPRP", "shrunken log2 fold change": 0.427}, {"sequence": "RRIRFRPPRLPRPRPRPYIAPRP", "shrunken log2 fold change": -1.11}]}]}
